The record followed here is patent publication US7563760 (GENETICS INSTITUTE, dated 2009).

Assay [1] has as its target T1, E-selectin/IgG chimera of Example 9 (human) (UniProt P16581).
T1 sequence (looked up): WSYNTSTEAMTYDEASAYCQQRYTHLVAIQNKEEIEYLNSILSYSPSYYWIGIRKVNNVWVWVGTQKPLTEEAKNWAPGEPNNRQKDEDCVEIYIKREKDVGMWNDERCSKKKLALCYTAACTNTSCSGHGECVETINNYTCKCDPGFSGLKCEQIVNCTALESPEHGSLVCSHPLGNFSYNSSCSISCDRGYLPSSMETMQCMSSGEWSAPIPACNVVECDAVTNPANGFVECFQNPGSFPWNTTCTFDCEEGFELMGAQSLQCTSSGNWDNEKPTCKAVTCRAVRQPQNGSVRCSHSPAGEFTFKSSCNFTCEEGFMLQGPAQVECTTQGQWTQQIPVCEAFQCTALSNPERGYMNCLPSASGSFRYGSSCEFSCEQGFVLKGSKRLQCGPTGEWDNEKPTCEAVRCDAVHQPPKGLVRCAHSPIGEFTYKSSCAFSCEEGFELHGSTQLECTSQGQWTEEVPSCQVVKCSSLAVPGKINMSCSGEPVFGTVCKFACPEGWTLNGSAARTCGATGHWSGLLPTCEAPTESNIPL
The assay can be described thus: affinity capture on E-selectin/IgG chimera protein A sepharose, EDTA elution, scintillation counting.

The target in assay [2] is T2, LEC-γ1, chimeric form of P-selectin conjugated to the Fc portion of a human IgGγ1 (human, UniProt P16109 42-771).
T2 construct: extracellular domain; Built by known methods (Aruffo et al. 1991), made in CHO DUKX cells; also called P-selectin/IgG chimera; P-selectin/Fc chimera; not shown: Fc portion of a human IgGγ1
T2 sequence (looked up): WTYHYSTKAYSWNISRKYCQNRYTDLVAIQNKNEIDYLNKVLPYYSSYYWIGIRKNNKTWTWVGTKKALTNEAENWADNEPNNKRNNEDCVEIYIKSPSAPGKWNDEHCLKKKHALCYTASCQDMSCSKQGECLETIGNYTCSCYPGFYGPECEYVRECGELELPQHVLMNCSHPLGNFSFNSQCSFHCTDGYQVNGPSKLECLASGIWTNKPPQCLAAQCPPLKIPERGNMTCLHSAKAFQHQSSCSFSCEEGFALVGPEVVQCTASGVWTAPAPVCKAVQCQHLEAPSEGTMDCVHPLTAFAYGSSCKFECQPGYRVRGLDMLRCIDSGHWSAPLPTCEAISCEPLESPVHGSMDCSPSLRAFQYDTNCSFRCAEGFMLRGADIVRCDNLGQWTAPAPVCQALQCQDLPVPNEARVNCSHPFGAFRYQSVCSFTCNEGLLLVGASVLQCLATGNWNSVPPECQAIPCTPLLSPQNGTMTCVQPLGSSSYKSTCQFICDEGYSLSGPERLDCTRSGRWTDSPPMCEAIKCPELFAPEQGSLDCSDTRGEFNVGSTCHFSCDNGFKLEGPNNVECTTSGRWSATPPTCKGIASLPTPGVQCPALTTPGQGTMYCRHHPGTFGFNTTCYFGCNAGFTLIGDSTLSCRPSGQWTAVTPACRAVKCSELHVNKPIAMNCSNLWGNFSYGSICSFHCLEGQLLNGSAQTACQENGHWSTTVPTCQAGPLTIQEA
As to the kind of experiment: affinity capture on P-selectin/IgG chimera protein A sepharose, EDTA elution, scintillation counting. On the procedure: U937 cells (approximately 6.5 ×10^7) were recovered from tissue culture plates and divided equally into two 50 mL cultures (final concentration of […]) containing fresh complete RPMI medium and 50 µCi/ml of ^3H-glucosamine hydrochloride (labels the protein-linked carbohydrate of glycoproteins [Varki, FASEB 5:226-235 (1991)]. After 48 hours incubation, the cells from both cultures were recovered by centrifugation and washed three times with PBS. The pelleted cells were suspended in 2.5 mL each of a lysis buffer containing 1% Triton X-100 and disrupted by probe sonication for two minutes. The detergent lysates were placed on ice for three hours and then resonicated for an additional two minutes. The lysates were centrifuged at 16,000 rpm for five minutes, the supernatants were recovered and each adjusted to 12 mL with lysis buffer containing no detergent. […]
Following incubation, the two parallel reaction mixtures were each centrifuged at 2,000 rpm and supernatants were discarded. […] A final 1 mL pre-elution wash of each resin pellet using buffer containing 0.01% Triton X-100 was conducted and these were retained for quantitation of radioactive counts by liquid scintillation counting (LSC). […] The supernatants were recovered by centrifugation and then quantitated by LSC.

Assay [3] addresses T3, P-selectin expressed on the surface of CHO cells (CHO:P-selectin cell line) (UniProt P16109 42-830, limits assumed).
T3 construct: whole, on cells; also called P-selectin expressing CHO cells
T3 sequence (looked up): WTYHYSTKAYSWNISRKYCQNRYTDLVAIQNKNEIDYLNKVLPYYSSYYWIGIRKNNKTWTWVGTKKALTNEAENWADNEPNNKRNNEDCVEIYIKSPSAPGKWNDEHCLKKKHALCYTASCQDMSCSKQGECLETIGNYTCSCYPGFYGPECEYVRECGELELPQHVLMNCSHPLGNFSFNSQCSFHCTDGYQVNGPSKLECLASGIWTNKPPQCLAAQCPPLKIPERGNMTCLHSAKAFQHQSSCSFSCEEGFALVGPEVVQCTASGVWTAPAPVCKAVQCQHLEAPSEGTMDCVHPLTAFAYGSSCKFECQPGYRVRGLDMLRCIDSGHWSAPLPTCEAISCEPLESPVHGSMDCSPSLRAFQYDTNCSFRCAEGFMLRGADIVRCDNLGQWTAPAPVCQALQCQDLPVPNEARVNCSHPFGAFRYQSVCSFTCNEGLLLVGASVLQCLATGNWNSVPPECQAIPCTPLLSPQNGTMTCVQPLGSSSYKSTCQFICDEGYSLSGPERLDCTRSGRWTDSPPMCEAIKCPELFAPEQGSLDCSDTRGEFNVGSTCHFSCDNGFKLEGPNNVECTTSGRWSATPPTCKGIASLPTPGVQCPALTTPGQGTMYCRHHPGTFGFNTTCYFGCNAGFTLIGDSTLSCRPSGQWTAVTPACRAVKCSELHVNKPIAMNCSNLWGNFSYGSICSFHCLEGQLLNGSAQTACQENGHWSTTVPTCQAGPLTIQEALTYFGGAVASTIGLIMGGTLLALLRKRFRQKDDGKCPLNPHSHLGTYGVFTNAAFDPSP
The assay can be described thus: adhesion of 3H-thymidine-labelled CHO:P-selectin cells to transfected COS cells. On the procedure: COS cells were co-transfected with the pMT21:PL85 plasmid of Example 1 and the pEA.3/4FT plasmid of Example 2 by the same procedure used in the initial stages of screening. As controls, COS cells were transfected with pMT21:PL85 alone, or with pEA.3/4FT alone, or with a similar plasmid containing no insert ("mock"). 24 hours post-transfection, the transfected cells were trypsinized and distributed into Costar 6-well tissue culture plates. CHO:P-selectin cells were labeled for 16 hours with ^3H-thymidine using known methods and preincubated at 0.5×10^6 cells/ml for 30 minutes at 4° C. in α medium containing 1% BSA (control); α medium containing 1% BSA, 5 mM EDTA and 5 mM EGTA; α medium containing 1% BSA and 10 μg/ml of a neutralizing anti P-selectin monoclonal antibody; and α medium containing 1% BSA and a non-neutralizing anti-P-selectin monoclonal antibody. The preincubated cells were then added to the wells containing the transfected COS cells. After a 10 minute incubation, unbound cells were removed by 4 changes of medium. The bound CHO:P-selectin cells were released by trypsinization and quantified by scintillation counting.
Likewise, incubation with neutralizing anti-P-selectin antibody also eliminated specific binding, whereas non-neutralizing antibody had no effect. […]

The target of assay [4] is T4, E-selectin expressed on CHO cells (CHO:E-selectin) (UniProt P16581 22-610, limits assumed).
T4 construct: whole, on cells; also called E-selectin expressing CHO cells; CHO cells which express E-selectin
T4 sequence (looked up): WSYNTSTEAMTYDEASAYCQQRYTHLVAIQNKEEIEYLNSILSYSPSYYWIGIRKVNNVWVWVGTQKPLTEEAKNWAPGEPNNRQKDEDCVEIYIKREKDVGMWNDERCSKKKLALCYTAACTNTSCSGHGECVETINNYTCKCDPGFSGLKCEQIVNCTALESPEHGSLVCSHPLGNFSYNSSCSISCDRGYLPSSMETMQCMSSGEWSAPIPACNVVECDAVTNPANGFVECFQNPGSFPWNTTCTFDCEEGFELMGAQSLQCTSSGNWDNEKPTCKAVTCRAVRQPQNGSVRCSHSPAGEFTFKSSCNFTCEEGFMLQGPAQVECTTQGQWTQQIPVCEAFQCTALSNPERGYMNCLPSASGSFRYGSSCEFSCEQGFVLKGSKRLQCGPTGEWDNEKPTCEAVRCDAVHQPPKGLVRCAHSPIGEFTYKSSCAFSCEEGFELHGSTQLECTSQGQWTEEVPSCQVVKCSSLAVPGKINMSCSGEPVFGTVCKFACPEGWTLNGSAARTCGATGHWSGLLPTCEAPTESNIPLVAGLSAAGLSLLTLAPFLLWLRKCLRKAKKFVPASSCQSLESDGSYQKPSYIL
As to the kind of experiment: plate coated with chimera; adhesion of CHO:E-selectin cells (FIG. 17). On the procedure:
(§1) Quantitative adhesion of CHO:P-selectin, CHO:E-selectin and CHO:L-selectin expressing cells was performed as described in Example 4(c), with the following modifications: COS cell and antibodies were omitted. Instead, 48-well microtiter plates (Costar) were coated for 16 hours at 4° C. with varying quantities of protein A-purified soluble PSGL-1/Fc chimeras. The unbound material was removed and the coated wells were treated with Hank's buffered saline (HBS) with 1 mg/ml BSA and 2 mM CaCl_2 for 1 hour at 4° C. Tritium labeled CHO selectin expressing cells were added and binding quantitated as described in Example 4(c).

Assay [5] concerns the target T3, P-selectin expressed on the surface of …. The assay can be described thus: plate coated with chimera; adhesion of CHO:P-selectin cells (FIG. 17). Here is the method: as §1

No end group written: not given here. Bounds are passed on as bounds.

B1: native PSGL-1 of U937 cells (major glycoprotein captured from detergent extracts) (ligand, human, UniProt Q14242 42-412, looked up)
chain: QATEYEYLDYDFLPETEPPEMLRNSTDTTPLTGPGTPESTTVEPAARRSTGLDAGGAVTELTTELANMGNLSTDSAAMEIQTTQPAATEAQTTQPVPTEAQTTPLAATEAQTTRLTATEAQTTPLAATEAQTTPPAATEAQTTQPTGLEAQTTAPAAMEAQTTAPAAMEAQTTPPAAMEAQTTQTTAMEAQTTAPEATEAQTTQPTATEAQTTPLAAMEALSTEPSATEALSMEPTTKRGLFIPFSVSSVTHKGIPMAASNLSVNYPVGAPDHISVKQCLLAILILALVATIFFVCTVVLAVRLSRKGHMYPVRNYSPTEMVCISSLLPDGGEGPSATANGGLSKAKSPGLTPEPREDREGDDLTLHSFLP
modifications: native myeloid glycosylation, 3H-glucosamine labelled
notes: 200-220 kD non-reduced, 100-120 kD reduced; also called U937 ligand; major U937 glycoprotein
With B1, the radiolabel in the EDTA eluate relative to the final pre-EDTA wash was above 10 fold in assay [1] and at least 10 fold in assay [2].

B2: full-length P-selectin ligand protein (PSGL-1, pMT21:PL85) expressed with fucosylation (COS or CHO cells with 3/4FT, or LEC11 cells) (ligand)
chain: QATEYEYLDYDFLPETEPPEMLRNSTDTTPLTGPGTPESTTVEPAARRSTGLDAGGAVTELTTELANMGNLSTDSAAMEIQTTQPAATEAQTTPLAATEAQTTRLTATEAQTTPLAATEAQTTPPAATEAQTTQPTGLEAQTTAPAAMEAQTTAPAAMEAQTTPPAAMEAQTTQTTAMEAQTTAPEATEAQTTQPTATEAQTTPLAAMEALSTEPSATEALSMEPTTKRGLFIPFSVSSVTHKGIPMAASNLSVNYPVGAPDHISVKQCLLAILILALVATIFFVCTVVLAVRLSRKGHMYPVRNYSPTEMVCISSLLPDGGEGPSATANGGLSKAKSPGLTPEPREDREGDDLTLHSFLP
modifications: glycosylated; co-expressed with (α1,3/α1,4) fucosyltransferase (3/4FT) or made in SLex-positive LEC11 cells
notes: Encoded as amino acids 1-402; In blots and immunoprecipitations it stood as a membrane detergent extract; also called PSL; CD-PSGL-1 (R3.4) product
Regarding B2, the “fold binding of CHO:P-selectin cells relative to COS mock cells” value in assay [3] was around 5.4 fold.

B3: 47.Fc of Example 10, amino acids 42-88 of SEQ ID NO:2 fused to IgG Fc (Fc fusion)
chain: QATEYEYLDYDFLPETEPPEMLRNSTDTTPLTGPGTPESTTVEPAAR
modifications: not fully specified (C-terminus); also: glycosylated, co-expressed with 3/4FT, sites not given here
notes: also called pED.47.Fc product; not shown: NotI junction/linker of pED.Fc; Fc region of a human IgG1 from pED.PSL.Fc
Regarding B3, the binding result in assay [4] and in assay [5] was “binds” throughout.
